Assay results: patent publication US20250011450A1

What was measured:
[1] = biological target: OX40 expressed on Jurkat cells (NF-kB luciferase reporter line) (UniProt P43489); test: cell-based or functional assay
[2] = biological target: anti-OX40 clone 3C8, iAbaff2 IgG; test: SEC-MALS, self-association
[3] = biological target: anti-OX40 clone 3C8, iAbaff2 IgG; test: SEC-MALS at 0.38 mg/ml, self-association
[4] = biological target: anti-OX40 clone 3C8, iAbaff2 IgG; test: SEC-MALS at 4.9 mg/ml, self-association
[5] = biological target: anti-OX40 clone 3C8, iAbaff2 IgG; test: SEC-MALS at 1.9 mg/ml, self-association

Sequence of UniProt P43489 (P43489 29-277 limits assumed): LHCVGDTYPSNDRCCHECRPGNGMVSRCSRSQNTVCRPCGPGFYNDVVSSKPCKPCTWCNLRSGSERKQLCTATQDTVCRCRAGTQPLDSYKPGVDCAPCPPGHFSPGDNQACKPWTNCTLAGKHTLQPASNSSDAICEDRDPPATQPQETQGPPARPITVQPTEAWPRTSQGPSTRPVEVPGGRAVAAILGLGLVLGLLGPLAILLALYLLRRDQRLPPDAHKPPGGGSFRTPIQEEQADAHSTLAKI

| EC50 of OX40 agonist activity (Jurkat OX40 NF-kB luciferase reporter), fold against iAb IgG [1] [fold] | maximal OX40 agonist activity (Jurkat OX40 NF-kB luciferase reporter), fold against iAb IgG [1] [fold] | SEC-MALS Molecular Weight (Da) [2] [Da] | SEC-MALS Molecular Weight (Da) [3] [Da] | SEC-MALS Molecular Weight (Da) [4] [Da] | SEC-MALS Molecular Weight (Da) [5] [Da] | Binder |
| --- | --- | --- | --- | --- | --- | --- |
| 100 | 2 |  |  |  |  | anti-OX40 clone 3C8, iAbaff1 monomeric Fab (Fab, part only; not given: Light chain, CH1 and tag, not shown: small tags and cut ends) heavy, part: EVQLVQSGAEVKKPGATVVVLCKASGYAFTNYLIEWVRQAPGQGLEWIGVINPGSGDTYYSEKFKGRVTLFADTSTSQAILILTSLRSEDTAVYYCARDRLDYWGQGTLVTVSS |
|  |  | 227000 | 204000 | 244000 | 225000 | anti-OX40 clone 3C8, iAbaff2 IgG (antibody, part only; not given: Light chain, V domains shown, part only) VH: EVQLVQSGAEVKKPGASVIVSCKASGYAFTNYLIEWVRQAPGQGLEWIGVINPGSGDTYYSEKFKGRVFLFADTSTSTAYLVLSSLRSEDTAVYYCARDRLDYWGQGTLVTVSS |
